Data on seven molecules can be found in patent US20240092889A1 (Chugai, published 2024).

To fix the notation:
B1: AL0737 (antibody, human IgG1, kappa, V domains shown)
VH: QVQLVESGGGVVQPGRSLRLSCAASGFTFSAYAMNWIRQPPGKGLEWIGLIYGSGSTFYASWAKGRVTISVDTSKNQFSLKLSSVTAADTAVYYCARGRSVNYNSDFHLWGQGTLVTVSS
VL: DIQMTQSPSSLSASVGDRVTITCQASQSLHDKKNLAWYQQKPGQPPKLLIYGASTLESGVPSRFSGSGSGTDFTLTISSLQPEDFATYYCQGEFSWSSADLNTFGQGTKVEIKR
notes: COS0637temp with VL C94W/C95dL (Kabat), already in the VL entry
B2: COS0637pHv8-TT91R (antibody, V domains shown)
VH: B1 VH with S56H, T57E, K64E, G65E, V101K
VL: B1 VL with S26N, S28I, Q91H, W96Y
B3: AL0743 (antibody, human IgG1, kappa, V domains shown)
VH: B1 VH
VL: B1 VL with W96Y
notes: COS0637temp with VL C94Y/C95dL (Kabat), already in the VL entry; template for further optimization
B4: AL0744 (antibody, human IgG1, kappa, V domains shown)
VH: B1 VH
VL: B1 VL with L101M
notes: COS0637temp with VL C94W/C95dM (Kabat), already in the VL entry
B5: COS0637pHv9-TT91R (antibody, V domains shown)
VH: B1 VH with S56H, T57E, K64E, G65E, V101K
VL: B1 VL with S26N, S28I, G52Q, T55Q, L56R, Q91H, S95P, W96Y, S97E
B6: COS0637temp-TT91R (antibody)
heavy: QVQLVESGGGVVQPGRSLRLSCAASGFTFSAYAMNWIRQPPGKGLEWIGLIYGSGSTFYASWAKGRVTISVDTSKNQFSLKLSSVTAADTAVYYCARGRSVNYNSDFHLWGQGTLVTVSSASTKGPSVFPLAPSSKSTSGGTAALGCLVKDYFPEPVTVSWNSGALTSGVHTFPAVLQSSGLYSLSSVVTVPSSSLGTQTYICNVNHKPSNTKVDKRVEPKSCDKTHTCPPCPAPEYLGGDSVFLFPPKPKDVLMISRTPEVTCVVIDVSHEDPEVKFNWYVDGVEVHNAKTKPREEQYNSTYRVVSVLPVLHRDWLNGKEYKCKVSNKALPKPIEKTISKAKGQRREPQVYTLPPSREEMTKNQVSLTCLVKGFYPSDIAVEWESNGQPENNYKTTPPVLDSDGSFFLYSKLTVDKSRWQQGNVFSCSVLHEALHAHTTRKELSLSP
light: DIQMTQSPSSLSASVGDRVTITCQASQSLHDKKNLAWYQQKPGQPPKLLIYGASTLESGVPSRFSGSGSGTDFTLTISSLQPEDFATYYCQGEFSCSSADCNTFGQGTKVEIKRTVAAPSVFIFPPSDEQLKSGTASVVCLLNNFYPREAKVQWKVDNALQSGNSQESVTEQDSKDSTYSLSSTLTLSKADYEKHKVYACEVTHQGLSSPVTKSFNRGEC
notes: COS0637h with K101H in HCDR3; CH TT91R, CL SK1
B7: recombinant human C1r2s2 tetramer (other)
chain 1: EPTMYGEILSPNYPQAYPSEVEKSWDIEVPEGYGIHLYFTHLDIELSENCAYDSVQIISGDTEEGRLCGQRSSNNPHSPIVEEFQVPYNKLQVIFKSDFSNEERFTGFAAYYVATDINECTDFVDVPCSHFCNNFIGGYFCSCPPEYFLHDDMKNCGVNCSGDVFTALIGEIASPNYPKPYPENSRCEYQIRLEKGFQVVVTLRREDFDVEAADSAGNCLDSLVFVAGDRQFGPYCGHGFPGPLNIETKSNALDIIFQTDLTGQKKGWKLRYHGDPMPCPKEDTPNSVWEPAKAKYVFRDVVQITCLDGFEVVEGRVGATSFYSTCQSNGKWSNSKLKCQPVDCGIPESIENGKVEDPESTLFGSVIRYTCEEPYYYMENGGGGEYHCAGNGSWVNEVLGPELPKCVPVCGVPREPFEEKQRIIGGSDADIKNFPWQVFFDNPWAGGALINEYWVLTAAHVVEGNREPTMYVGSTSVQTSRLAKSKMLTPEHVFIHPGWKLLEVPEGRTNFDNDIALVRLKDPVKMGPTVSPICLPGTSSDYNLMDGDLGLISGWGRTEKRDRAVRLKAARLPVAPLRKCKEVKVEKPTADAEAYVFTPNMICAGGEKGMDSCKGDSGGAFAVQDPNDKTKFYAAGLVSWGPQCGTYGLYTRVKNYVDWIMKTMQENSTPRED
chain 2: SIPIPQKLFGEVTSPLFPKPYPNNFETTTVITVPTGYRVKLVFQQFDLEPSEGCFYDYVKISADKKSLGRFCGQLGSPLGNPPGKKEFMSQGNKMLLTFHTDFSNEENGTIMFYKGFLAYYQAVDLDECASRSKLGEEDPQPQCQHLCHNYVGGYFCSCRPGYELQEDRHSCQAECSSELYTEASGYISSLEYPRSYPPDLRCNYSIRVERGLTLHLKFLEPFDIDDHQQVHCPYDQLQIYANGKNIGEFCGKQRPPDLDTSSNAVDLLFFTDESGDSRGWKLRYTTEIIKCPQPKTLDEFTIIQNLQPQYQFRDYFIATCKQGYQLIEGNQVLHSFTAVCQDDGTWHRAMPRCKIKDCGQPRNLPNGDFRYTTTMGVNTYKARIQYYCHEPYYKMQTRAGSRESEQGVYTCTAQGIWKNEQKGEKIPRCLPVCGKPVNPVEQRQQIIGGQKAKMGNFPWQVFTNIHGRGGGALLGDRWILTAAHTLYPKEHEAQSNASLDVFLGHTNVEELMKLGNHPIRRVSVHPDYRQDESYNFEGDIALLELENSVTLGPNLLPICLPDNDTFYDLGLMGYVSGFGVMEEKIAHDLRFVRLPVANPQACENWLRGKNRMDVFSQNMFCAGHPSLKQDACQGDAGGVFAVRDPNTDRWVATGIVSWGIGCSRGYGFYTKVLNYVDWIKKEMEEED
notes: C1s and C1r co-expressed in HEK293/FreeStyle 293-F and purified from conditioned medium

Numbering of substitutions follows the chain as printed. Numbers in names are those of the source.

Assay [1] has as its target B7. Put plainly: SPR (BIACORE), antibody captured by ProL, human C1r2s2 injected at 100 nM, pH 7.4, 37 C; y axis Response/Capture. The method, then:
Analysis of interaction between antibody variants and the human C1r2s2 prepared as mentioned above was carried out at pH7.4, at 37 degrees C. using BIACORE® T200 instrument (GE Healthcare) or BIACORE® 4000 (GE Healthcare). ProL (BioVision) was immobilized onto a CM4 sensorchip using amine coupling kit (GE Healthcare) according to the recommended settings by GE Healthcare. Antibodies and analytes were diluted into the respective running buffers, ACES pH7.4 (20 mM ACES (N-(2-Acetamido)-2-aminoethanesulfonic acid), 150 mM NaCl, 1.2 mM CaCl2, 1 mg/ml bovine serum albumin (BSA), 1 mg/ml CMD (CM-Dextran sodium salt), 0.05% Tween® 20 (polysorbate 20), 0.005 w/v % NaN3). Each antibody was captured onto the sensor surface by ProL. Antibody capture levels were aimed at 200 resonance units (RU). Then, recombinant human C1r2s2 was injected at concentrations of 25 and 100 nM followed by dissociation at pH7.4. The surface was regenerated using 10 mM Glycine-HCl, pH1.5.
In general terms: SPR reads the build-up and loss of mass on a sensor chip optically.

Assay [2] has as its target B7. Put plainly: SPR (BIACORE T200), 37 C, Ab captured via anti-human Ig kappa, human C1r2s2 as analyte, pH 7.4. The method, then:
(§1) KD (dissociation constant) value of each samples at pH 7.4 and pH 5.8 are determined at 37 degrees C. using BIACORE® T200 instrument (GE Healthcare). Purified Mouse Anti-Human Ig kappa Light Chain (GE Healthcare) can be immobilized onto all flow cells of a CMS sensor chip using an amine coupling kit (GE Healthcare). 20 mM ACES, 150 mM NaCl, 1.2 mM CaCl2, 1 mg/mL BSA (IgG-free), 1 mg/mL CMD, 0.05% Tween® 20, 0.005% NaN3, pH 7.4 or pH 5.8 buffer were used as running buffer. Each antibody can be captured onto the sensor surface by Anti-Human Ig kappa Light chain. Antibody capture levels are aimed at 50 resonance unit (RU). […] Sensor surface is regenerated each cycle with, e.g., Glycine pH 2.0 (GE Healthcare). KD values were obtained using BIACORE® T200 Evaluation software, version 2.0 (GE Healthcare).

Assay [3] concerns the target B7. Put plainly: SPR (BIACORE T200), 37 C, Ab captured via anti-human Ig kappa, human C1r2s2 as analyte, pH 5.8. Here is the method:
as §1

The target of assay [4] is B7. The assay is described as follows: SPR (BIACORE T200), 37 C, ratio of KD at pH 5.8 to KD at pH 7.4. Here is the method: as §1
The target in assay [5] is T1, native human C1q (CompTech) (human, UniProt P02745 23-245; P02746 28-253; P02747 29-245).
T1 construct: the subunit make-up A/B/C is from general knowledge
T1 sequence (P02745 23-245 limits assumed, chain 1 of 3): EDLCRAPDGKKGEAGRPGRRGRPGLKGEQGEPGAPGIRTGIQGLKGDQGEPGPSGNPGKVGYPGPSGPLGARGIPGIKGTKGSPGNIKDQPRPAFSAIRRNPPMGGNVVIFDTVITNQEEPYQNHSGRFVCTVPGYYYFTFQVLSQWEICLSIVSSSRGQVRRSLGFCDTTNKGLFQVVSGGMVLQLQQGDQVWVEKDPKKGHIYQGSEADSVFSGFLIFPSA
T1 sequence (P02746 28-253 limits assumed, chain 2 of 3): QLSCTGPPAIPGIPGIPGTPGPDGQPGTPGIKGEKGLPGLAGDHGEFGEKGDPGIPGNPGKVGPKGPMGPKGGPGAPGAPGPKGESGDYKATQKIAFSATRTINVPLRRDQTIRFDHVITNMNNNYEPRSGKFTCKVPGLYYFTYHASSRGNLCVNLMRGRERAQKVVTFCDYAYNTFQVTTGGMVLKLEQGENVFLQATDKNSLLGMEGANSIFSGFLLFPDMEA
T1 sequence (P02747 29-245 limits assumed, chain 3 of 3): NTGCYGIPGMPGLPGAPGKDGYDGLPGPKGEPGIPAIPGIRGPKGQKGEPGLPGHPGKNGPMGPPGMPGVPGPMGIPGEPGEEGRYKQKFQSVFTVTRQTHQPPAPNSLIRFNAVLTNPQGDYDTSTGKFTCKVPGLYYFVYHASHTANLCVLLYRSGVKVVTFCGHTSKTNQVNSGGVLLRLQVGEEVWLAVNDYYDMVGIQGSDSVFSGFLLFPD
The assay is described as follows: SPR (BIACORE T200), human C1r2s2 captured by immobilised IPN009VH2Vk3-SG1148, native human C1q injected at about 100 nM, pH 7.4, 37 C. From the text: Recombinant human C1r2s2 tetramer was first captured onto the sensor surface by the anti-C1r2s2 antibody. The capture levels were aimed at 200 resonance unit (RU). […] The sensor surface was regenerated each cycle with 3 M MgCl2. Sensorgrams were obtained using BIACORE® T200 Evaluation software, version 2.0 (GE Healthcare). […] For comparison of these sensorgrams, binging response of C1r2s2 was normalized as 100 RU. […] For comparison of these sensorgrams, baseline (before injecting antibodies) was adjusted to 0 RU.

A word on the Kd: it is the concentration at which binding is half-saturated.

For B1, in assay [1], the binding result is on record as “binds”. Regarding B2, the Kd in assay [2] worked out at 7.46 nM; in assay [3], 874 nM. For the same molecule, the “KD (pH 5.8)/KD (pH 7.4)” value in assay [4] worked out at 117. B3: the binding result in assay [1] is “binds”. With B4, the binding result in assay [1] is “binds”. Turning to B5, the Kd in assay [2] amounted to 3.48 nM; in assay [3], 157 nM. For the same molecule, the “KD (pH 5.8)/KD (pH 7.4)” value in assay [4] was determined as 45. Consider B6, for which the values for the Kd in assay [2] and in assay [3] were 55 nM and 6390 nM, respectively. The “KD (pH 5.8)/KD (pH 7.4)” value in assay [4] stood at 116. As to B7, in assay [5], the binding result is reported as “binds”.
